Legend:
purified protein [1] = substrate: CC(=O)N[C@H]1[C@@H](O[C@H]2[C@H](O)[C@@H](O)[C@H](OCCCNC(=O)OCC3c4ccccc4-c4ccccc43)O[C@@H]2C(=O)O)O[C@H](CO)[C@@H](O)[C@@H]1O; assay: purified protein; conditions: pH 5.0; 30.0 °C
purified protein [2] = substrate: CC(=O)N[C@H]1[C@@H](Oc2ccc3c(C)cc(=O)oc3c2)O[C@H](CO)[C@@H](O)[C@@H]1O; assay: purified protein; conditions: pH 5.0; 30.0 °C

B1: (Bacteroides thetaiotaomicron VPI-5482) (protein)
chain: TGPPVLKEMCQRLFPRHAQSFLFELLTDSIDTDRFILESSQGKIRIKGNNRNSLAAGLNHYLKNYCHTHVSWYASETVEMPDVLPEIPQPVYIRSKCDNRFFLNYCTFGYTMPYWKWQDWERLIDWMALNGVTMPLAITGQESIWYKVWTDMGLSDEQVRSYFTGPAHLPWHRMSNVDFWQSPLPQSWLKDQEELQKRILEREREFDMTPVLPAFAGHVPAELKTIYPNAKIYQMSQWGGFDEKYRSHFIDPMDSLYSIIQRRFLEEQTKVYGTDHIYGIDPFNEVDSPDWSEDFLANVSSKIYESIHQVDSAAQWLQMTWMFFYDKKKWTQPRIRSFLKAVPDNKLILLDYYCDHTEIWRNTEKYYGNPYIWCYLGNFGGNTMIAGNLNDIDFKIKRLFKEGGDNVYGLGATLEGFDVNPLMYEFVFDQAWDYPVTTDQWITNWSMCRGGNQDANIIKAWRALHQKIYTEHATCGQSVLMNARPRLTGTKSWNTNPGIHYANNDLWQIWKELLKARNINNSDFRFDVINIGRQVLGNLFSEYRDQFTACYNRKDTTGMREWSTRMDNLLLDVDRLLSCDATLSIGKWLQDARNCGATVSEKDYYEENARCILTVWGQQDTQLNDYANRGWGGLTRSFYRERWKRFTDGVIAAVSEDKPFDEDKFHQDITQFEYNWTLQKDSFPIVSEEDPIQIADSLILKYDTYFTKAQ
Purified protein [1]
  Km: 2190 ± 160 µM
  kcat: 3.57 ± 0.09 s⁻¹
  kcat/Km: 1630 M⁻¹ s⁻¹
Purified protein [2]
  Km: (4.6 ± 0.4) × 10^−3 mM
  kcat: 3.68 ± 0.07 s⁻¹
  kcat/Km: 800000 M⁻¹ s⁻¹
